Test results published in patent US8148141B2, “Peptide-immobilized substrate and method for measuring target protein” (HiPep Laboratories, priority 2001, dated 2012).
Ends that are not written are not given here. Rf = not defined here

How the values were obtained:
calmodulin = calmodulin (Homo sapiens, UniProt P0DP23); assay: calmodulin measurement with immobilized fluorescent-labeled α-helix peptide chip; assay type: binding; conditions: carboxyfluorescein peptide; exciting 490 nm, detection 520 nm; in the presence of calmodulin; 25° C., 5 minutes
Experimental: As schematically shown in FIG. 3, calmodulin was measured using a peptide chip in which peptides having α-helix structure, each of which both termini were labeled with different fluorescent labels, were immobilized on a substrate. The procedures were carried out as follows:
The sequence of the core region of the peptides, which forms α-helix structure was designed by molecular modeling using a computer (molecular modeling using Insight II/Discover, Molecular Simulation, U.S.) based on the amino acid sequence of the peptide described in a reference (K. T. O'Neil and W. F. DeGrado, Trend Biochem Sci, 15, 59-64 (1990)). As a result, the amino acid sequence Leu-Lys-Lys-Leu-Leu-Lys-Leu-Leu-Lys-Lys-Leu-Leu-Lys-Leu (SEQ ID NO:1) was employed as the amino acid sequence of the core region. […]

amylase = amylase measurement with immobilized fluorescent-labeled β-loop peptide chip; assay type: binding; conditions: carboxyfluorescein group; exciting 490 nm, detection 520 nm; amylase 1.0 μM, Tris buffer pH7.4, 150 mM NaCl; 25° C., 5 minutes
Experimental: As schematically shown in FIG. 4, amylase was measured using a peptide chip in which a peptide whose one terminus was labeled with a fluorescent label, which peptide has β-loop structure, was immobilized on a substrate. The procedures were carried out as follows:
As in Example 1, as schematically shown in FIG. 4, a peptide which forms β-loop structure was designed by molecular modeling using a computer based on the amino acid sequence of the peptide described in a reference (F. J. Blanco et al., Eur J Biochem 200, 345-351 (1991), S. Ono et al, Biosci Biotechnol Biochem, 62, 1621-1623 (1998)). As a result, as the amino acid sequence of the core region, the sequence Tyr-Gln-Ser-Trp-Arg-Tyr-Ser-Gln-Ala (SEQ ID NO: 5) was employed. The peptide having this sequence to which Cys residue as an anchor for immobilization was added to one terminus, and to which Lys residue having a fluorescent group Rf (fluorescent group such as carboxyfluorescein in FIG. 4) was added to another terminus, was synthesized. […] When carboxyfluorescein group was used, fluorescence measurement was performed employing exciting wavelength of 490 nm and detection wavelength of 520 nm. By adding an amylase solution (Tris buffer pH7.4, 150 mM NaCl, amylase concentration: 1.0 μM), about ten times increase of the fluorescence intensity was measured, so that the amylase was able to be detected and quantified. […]

increase of the fluorescence intensity (calmodulin) | increase of the fluorescence intensity (amylase) | Substance
about ten |  | Lys(Rf3)-Leu-Lys-Lys-Leu-Leu-Lys-Leu-Leu-Lys-Lys-Leu-Leu-Lys-Leu-Cys-NH2 (K(carboxyfluorescein)LKKLLKLLKKLLKLC-NH2) [peptide containing carboxylfluorescein, Rf3 carboxyfluorescein group]
 | about ten | Lys(Rf)-Tyr-Gln-Ser-Trp-Arg-Tyr-Ser-Gln-Ala-Cys-NH2 (K(Rf)YQSWRYSQAC-NH2; reading uncertain; also: printed as Lys(Rf)-Tyr-Gln-Ser-Trp-Arg-Tyr-Ser-Gln-Ala-Cys-NH2) [SEQ ID NO: 6, Rf fluorescent group such as carboxyfluorescein]
